# Measurements taken from patent publication US20170037110A1 (IMMATICS BIOTECHNOLOGIES, published 2017).
# Biological target: T1, HLA-A*02:01 (human)
# T1 construct: monomers captured on streptavidin plates; also called MHC class I
# Test: UV peptide exchange ELISA
# Text: Candidate peptides for T cell based therapies according to the present invention were further tested for their MHC binding capacity (affinity). The individual peptide-MHC complexes were produced by UV-ligand exchange, where a UV-sensitive peptide is cleaved upon UV-irradiation, and exchanged with the peptide of interest as analyzed. Only peptide candidates that can effectively bind and stabilize the peptide-receptive MHC molecules prevent dissociation of the MHC complexes. To determine the yield of the exchange reaction, an ELISA was performed based on the detection of the light chain (p2m) of stabilized MHC complexes.
# 96 well MAXISorp plates (NUNC) were coated over night with 2 μg/ml streptavidin in PBS at room temperature, washed 4× and blocked for 1 h at 37° C. in 2% BSA containing blocking buffer. […] Peptide-MHC monomers of the UV-exchange reaction were diluted 100 fold in blocking buffer. Samples were incubated for 1h at 37° C., washed four times, incubated with 2 μg/ml HRP conjugated anti-p2m for 1h at 37° C., washed again and detected with TMB solution that is stopped with […]. Absorption was measured at 450 nm.
row,Binder,peptide exchange yield [%]
1,ALQDFLLSV,50 to 75
2,ALYTGFSILV,20 to 50
3,GLDAATATV,20 to 50
4,ALYIGDGYVIHLA,50 to 75
5,VLASYNLTV,50 to 75
6,KITDTLIHL,50 to 75
7,LLADVVPTT,50 to 75
8,SLLFSLFEA,20 to 50
9,LLPPLESLATV,20 to 50
10,VLSETLYEL,20 to 50
11,SIFSAFLSV,50 to 75
12,AAFAGKLLSV,50 to 75
13,AMQEYIAVV,20 to 50
14,SLFGGTEITI,50 to 75
15,VLLEIEDLQV,≥ 75
16,LLVSNLDFGV,50 to 75
17,NLFQSVREV,20 to 50
18,YLNDLHEVLL,≥ 75
19,YLVAKLVEV,20 to 50
20,ALMNTLLYL,20 to 50
21,FLPPEHTIVYI,50 to 75
22,TLIDAQWVL,50 to 75
23,ALLEAQDVELYL,20 to 50
24,ALMEDTGRQML,20 to 50

row,Binder,peptide exchange yield [%]
1,FMVDNEAIYDI,≥ 75
2,MLYVVPIYL,20 to 50
3,FLSPQQPPLLL,20 to 50
4,GLLEAKVSL,50 to 75
5,ILLEQAFYL,50 to 75
6,ALGNTVPAV,50 to 75
7,YLISFQTHI,50 to 75
8,VLLTFKIFL,20 to 50
9,LLFGGTKTV,20 to 50
10,FLFPNQYVDV,50 to 75
11,TLLAFIMEL,50 to 75
12,ALSEEGLLVYL,50 to 75
13,SLLKVLPAL,50 to 75
14,RLPGPLGTV,20 to 50
15,VLPDPEVLEAV,50 to 75
16,YVLEFLEEI,20 to 50
17,LLLNELPSV,50 to 75
18,SLVEVNPAYSV,50 to 75
19,ALFTFSPLTV,50 to 75
20,SLQEQLHSV,50 to 75
21,QLLDVVLTI,20 to 50
22,LVYPLELYPA,50 to 75
23,ILLSQTTGV,50 to 75
24,NLINEINGV,50 to 75

row,Binder,peptide exchange yield [%]
1,ELAERVPAI,20 to 50
2,FLNEFFLNV,50 to 75
3,QLLHVGVTV,50 to 75
4,LLLDEEGTFSL,20 to 50
5,VLLPNDLLEKV,50 to 75
6,VLFQGQASL,50 to 75
7,RVLEVGALQAV,20 to 50
8,LLDGFLVNV,50 to 75
9,LLWEVVSQL,50 to 75
10,YLFPGIPEL,50 to 75
11,LLWGDLIWL,50 to 75
12,GLLPGDRLVSV,50 to 75
13,ILVDWLVEV,10 to 20
14,ILVDWLVQV,50 to 75
15,SMIDDLLGV,50 to 75
16,AIAYILQGV,20 to 50
17,LLIGTDVSL,50 to 75
18,ILRESTEEL,50 to 75
19,AAYGGLNEKSFV,50 to 75
20,ALLEASGTLLL,≥ 75
21,YLVYILNEL,20 to 50
22,ALWGGTQPLL,20 to 50
